Assay results: patent US20230358742A1 (MIT, published 2023)

B1: rcSso7d.LSP.3 (yeast-surface displayed) (designed binder)
chain: MATVKFTYQGEEKQVDISKIKIAKRYGQIIDFSYDEGGGARGWGIVSEKDAPKELLQMLEKQ
notes: also called clone 3; Clone 3
B2: rcSso7d.LSP.4 (designed binder)
chain: MATVKFTYQGEEKQVDISKIKDVGRYGQRICFWL
notes: also called clone 4; Clone 4
B3: rcSso7d.LSP.2 (designed binder)
chain: MATVKFTYQGEEKQVDISKIKDVGRHGQKICFLL
notes: also called clone 2; Clone 2
B4: rcSso7d.LSP.7 (designed binder)
chain: MATVKFTYQGEEKQVDISKIKIAVYRYGQYIYFSYDEGGGASGIGKVSEKDAPKELLQMLEKQ
notes: also called clone 7; Clone 7
B5: rcSso7d.LSP.6 (designed binder)
chain: MATVKFTYQGEEKQVDISKIKDVGRHGQHICFWL
notes: also called clone 6; Clone 6
B6: rcSso7d.LSP.1 (designed binder)
chain: MATVKFTYQGEEKQVDISKIKDVGRSGQNICFYL
notes: also called clone 1; Clone 1
B7: rcSso7d.LSP.5 (designed binder)
chain: MATVKFTYQGEEKQVDISKIKWVRRAGQWIDFAYDEGGGAKGYGIVSEKDAPKELLQCWKS
notes: also called clone 5; Clone 5

Biological target: T1, His-LSP (LMOf2365_0639, Listeria monocytogenes surface protein, with N-terminal 6x-histidine tag) (Listeria monocytogenes)
T1 construct: also called Listeria surface protein
T1 chain: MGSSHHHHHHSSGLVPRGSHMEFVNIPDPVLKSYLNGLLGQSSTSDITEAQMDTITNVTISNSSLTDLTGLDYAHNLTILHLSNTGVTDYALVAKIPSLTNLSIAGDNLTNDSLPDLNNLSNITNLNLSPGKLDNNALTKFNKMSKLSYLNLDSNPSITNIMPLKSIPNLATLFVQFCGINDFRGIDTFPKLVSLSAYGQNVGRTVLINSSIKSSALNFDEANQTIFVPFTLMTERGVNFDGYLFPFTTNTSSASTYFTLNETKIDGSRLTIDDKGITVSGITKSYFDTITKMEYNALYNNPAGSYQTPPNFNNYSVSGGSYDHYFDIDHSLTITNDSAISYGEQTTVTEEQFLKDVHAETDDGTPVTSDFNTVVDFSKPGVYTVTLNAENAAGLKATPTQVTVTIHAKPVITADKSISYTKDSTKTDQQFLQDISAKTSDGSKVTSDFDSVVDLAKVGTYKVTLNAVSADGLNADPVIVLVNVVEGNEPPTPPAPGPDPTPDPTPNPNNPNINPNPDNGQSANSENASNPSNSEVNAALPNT
Test: FACS histograms, clonal yeast-surface display, 20 nM of LSP (FIG. 3B)

Does B1 bind?
Result: binds

Does B2 bind?
Result: binds

Does B3 bind?
Result: binds

Biological target: T1, His-LSP (LMOf2365_0639, Listeria …)
Test: flow cytometry, clonal yeast-surface display, 20 nM His-LSP

Does B4 bind?
Result: binds

Does B5 bind?
Result: binds

Does B6 bind?
Result: binds

Does B7 bind?
Result: binds
